Results from the DeepSol protein solubility set.

Assay: soluble on expression in E. coli; label from the status in PepcDB or PDB records

Sequence | soluble on expression in E. coli
MSLLQVAPSAYRRHAARQRCPKLRSARSQRDEGLMAEIRRVWQANMQVYGVRKVWYQLQREGIAVARCTVERLMRRLGLQGVRRGKRVRTTIADGSQACSLDRVNRHFHADRPNQLWVSDFTYVSTWQGWLYVAFVIDVFARRIVGWRVSTTMSTDFVLDALEQALYDRRPAESLIHHSDRGSQYVSIRYTERLAEAGIEPSVGSRGDSYDNALAETINGLYKAELIHRRAPWKTRAAVELATLEWVAWYNHQRLLGSIGYIPPAQAEELYHRTHSETVPMNAVLEGHHHHHH | not soluble
MVADHFRYLVQYDDINREEHAHKSRIAYQEALGIAKDKMQPTHPIRLGLALNASALNFDVLNLPKEANEIAQSALDSAHRELEKMKSSLDSYDISNLKRARTLYDLLKSTHEQRVDGKEGEEADN | not soluble
MNNKLVRSLKYNDVYGELYSYENSSALTVIFPGINYGHEKPLLYYARKAAAQNNIDILCINYKNKISWEDIGKQSIEDVAIEIKGIIKNVIEKKYDNIYFLGKSVGTEIAGCTSSKLNIDNIKFLYLTPIEETLKYIVDRKCIVVSGTKDEFFKSECINKIRENKNVKLMLFEGANHSLEIKDDIIRSLRILDNVAQLYLDFFK | not soluble
MSDVAETVVAQEPEVVEPVEEKPTETGSDDVVVIDEKTSEQNGEKTEETQAEATEEKNETEAEEADKDKAVENGEAKDTNGNDRKRVSSAHEEAPVADAEEDAPLTKKSKVEDEVDVAASGDAPAVAAE | soluble
MTRPIGIYEKATPKHFNWLERLQFAKELGFDFVELSIDESDERLARLEWSKEERLELVKAIFETGVRVPTITFSGHRRFPMGSNNPEKEARAMDMMKKCIVFAQDIGIRNIQLAGYDVYYEEKSPETRARFIKNLRQACTWAEEAQVILSIEIMDDPFMNSIEKYLAVEKEIDSPYLFVYPDTGNVSAWHNDLWSEFYNGHRSIAALHIKDTYAVTETSKGQFRDVPFGQGCVDWEEMFAVIKKTNYNGPFLIEMWSENCETVEETRAAIKEAQDFLYPLMEKTGVK | not soluble
MVMNQKNLFTRSALAAAIALISSNVSAAGFQLNEYSAAALGRAFSGEGAVADNASVGSRNPAAMTLFDRPSFSGGVIYIDPSVDITGTSPSGKSTDASNIAPSAWVPNLHFIMPLDEQWAIGASATSNYGLATEFNDDYVAGMLGGQTDLKTANLNLSAAYRLNDNFSFGLGFDAVYADAKIVRHLGEAGGGLLPANTEAARLEGTKWGYGWNTGILYEIDKENRYSFTYRSEVNIDFDGDYSNQLPVIFGGLGGKTVPGSLTLNLPAVWEVSGYNKVAPQWAIHYSMAYTTWSSFKELKATASNGDVLFDKHEGFRDAYRIALGTTYYYDDNWTFRTGIAFDDSPIPAGNRSISIPDQDRFWLSAGTTYAFNKNASVDVGIAYMKGQNVSITEKTPAPSNTTYEFNSKGSAMLYGVNFNYTF | not soluble
MSLQFSFDPVSNAPMVSFPSTQQPDLEKLRFKFAPVLSRSFAFNGGSRTGTLYGVQVPYVDNSKEFSQYAAKLFEVYKSLGADKQFAVPTIGLINHTSTLEHNQTVNLALEAIVSELELFIESLKYSGRQQRLVDLEECLSILNCLKTVQFTLDSEEENSRAKFIDSLISWVNRTDGEPSEAVIAKVLGDGKQTPILENPYFWRLLCQLIIRGLFDQAVAAIEKSELLSYLADKCSATHTMVQDMVNLLQGYPRELEPVYREWKDLVLQLHLNWSQSEHKISIELASSLEDCLLIMCGNKSKIIYYSKTWYECYCGLMLYYIPSLQLSEEYLQLVLKEHPLDVTSPWEQACVSIITGKIYSILPVLDSLDSCTAAFTAAICEAKGLLENDLLDDGGLEVSNTGDEMFGLGNTMASYLLNQFALSIVTYEDKNLWAVAIGIIYLTPNYSDAAKRMMIAELLPHYPFQTNDDIEWMLTICAKWKLPQIARTIYRVLGQEALYLNNIIEAISNFSKAGEFEWVKEGHHHHHH | soluble
MVLETTSSRDGEIKLTVDQMLGKLARWIRLMGYDVYYPSGTVPDDEIITKSRSEGRIIITRDYGMYQKYPMSIFEPYDDINDQLRDFIAHFSSRMKDRFMRCPVCNGRLVKLRSKIPEYLRNHRDVYICTGCHKMYWKGSHYRRIYRKIENLRPKGE | soluble
MMVYPVKHSPLLRQPEHFIARDELKALVQKVTHNLVNIKDETGEFLLRLDDGRVIDTKGWAGWEWTHGVGLYGMYHYYQQTGDQTMRKIIDDWFADRFAEGATTKNVNTMAPFLTLAYRYEETRNPAYLPWLETWAEWAMNEMPRTDHGGMQHITLAEENHQQMWDDTLMMTVLPLAKIGKLLNRPEYVEEATYQFLLHVQNLMDKETGLWFHGWSYDGHHNFANARWARGNSWLTIVIPDFLELLDLPENNAVRRYLVQVLNAQIAALAKCQDESGLWHTLLDDPHSYLEASATAGFAYGILKAVRKRYVERHYAQVAEKAIRGIVKHISPEGELLQTSFGTGMGHDLDFYRHIPLTSMPYGQAMAMLCLTEYLRNYF | not soluble
MGSDKIHHHHHHAKTTTATTTQASVKKQTYTILSSSFYKTAKTYHTKDAKPVVYKAVMGADRPTMTLTAKGKLKAGTTYKVTKQVKVKINAKKSQKYSYVKGQGWVVSSKLTAGKFKAASGVKKTATKYTIVSVTALKKAKTVHTKDARPVVYKAAVAADRPTMTLTTNGKLKAATTYKVTKQAKLKNAAKKTVAFSYVSGHGWVLQRDLTNGQFMNAD | not soluble
MPTFLLVNDDGYFSPGINALREALKSLGRVVVVAPDRNLSGVGHSLTFTEPLKMRKIDTDFYTVIDGTPADCVHLGYRVILEEKKPDLVLSGINEGPNLGEDITYSGTVSGAMEGRILGIPSIAFSAFGRENIMFEEIAKVCVDIVKKVLNEGIPEDTYLNVNIPNLRYEEIKGIKVTRQGKRAYKERVFKYIDPYGKPFYWIAAEEFGWHAEEGTDYWAVLNGYVSVTPLHLDLTNYKVMKSIKYLEDSP | soluble
SNRLDGKVAIITGGTLGIGLAIATKFVEEGAKVMITDRHSDVGEKAAKSVGTPDQIQFFQHDSSDEDGWTKLFDATEKAFGPVSTLVNNAGIAVNKSVEETTTAEWRKLLAVNLDGVFFGTRLGIQRMKNKGLGASIINMSSIEGFVGDPSLGAYNASKGAVRIMSKSAALDCALKDYDVRVNTVHPGYIKTPLVDDLPGAEEAMSQRTKTPMGHIGEPNDIAYICVYLASNESKFATGSEFVVDGGYTAQ | soluble
MGSDKIHHHHHHMKNNKNEKLKITIVSGFLGSGKTTFLTHYINELLKIDEKITVIMNEFGSFDVDGNHLSELVKVYPLLNGCVCCDMKSDLVQQIEMLSHNHETDHIIIEATGIAHPIELIMACQDPRIVQFVERPHVVSIVDALRFLQRQQYTDSTKRLMEEQLEVSDVLVVNKLDLISVEDRDALKNQLNEVNKYSSKIYTTYGQVNIEELSQFRDQLVMTHTHSHHHGINSMQYTFTTAIDRQLFYQFILRMPDNVLRLKGYVQFKDEPNVTYEFQYSFGMPDYEVINGDYPLTIVLIGEQLDVNRLKNKLDVLQFS | not soluble
MSLYKDDSLTLHTDLYQINMMQVYFNQGIHNKRAVFEVFFRKEPFANGYAVFAGLERMIAYLQGLSFSETDIAYLEELGYPADFVAYLKEFKLELSVKSAKEGDLVFANEPIVQIEGPLAQCQLVETAILNIVNFQTLIATKAARIRSVIEDEPLLEFGTRRAQEMDAAIWGTRAAVIGGANATSNVRAGKLFGIPVSGTHAHALVQAYGNDYDAFMAYAGTHKDCVFLVDTYDTLRLGVPAAIRVASELGDKINFLGVRIDSGDMAYLSKKVRKLLDEAGYPHAKIYASNDLDENTILNLKMQKAKIDIWGVGTKLITAYDQPALGAVYKIVSIEDDNGVMQDTIKLSNNAEKVSTPGKKQVWRITSRAKGKSEGDYITFTDTDVNSLDEIDMFHPTYTYINKKVRDFDAVPLLVDIFDQGKLVYTQPSLSDIQDYARREFDKLWDEYKRVLNPQDYPVDLACDVWQNKVNLIDRIRKEAYEKGDVKEGHHHHHH | soluble
MSSAFLADRRLIRVSGTGAEEFLNNLITADIENLPEGETRASALLTPQGKILFDFLIWRDGRDYLVETGAAEQDALLRRLTMYKLRAPVELKAETVEGIGVFWGNSVTEAGVRDGRFAKAGVDLRRVPGASASGEAAAYEALRVEHGIAESGRDYALQDAFPHDVLMDVNDGVSFKKGCFVGQEVVSRMKHRGTARRRVVTVSADGTLPASGTEITANGKPVGALGTVYGNRALAIVRTDRVADALAAGTPLLADNVAVSVALPAWSGLSFPAADPAARAED | not soluble
GHMLVMRPAQAADLPQVQRLAADSPVGVTSLPDDAERLRDKILASEASFAAEVSYNGEESYFFVLEDSASGELVGCSAIVASAGFSEPFYSFRNETFVHASRSLSIHNKIHVLSLCHDLTGNSLLTSFYVQRDLVQSVYAELNSRGRLLFMASHPERFADAVVVEIVGYSDEQGESPFWNAVGRNFFDLNYIEAEKLSGLKSRTFLAELMPHYPIYVPLLPDAAQESMGQVHPRAQITFDILMREGFETDNYIDIFDGGPTLHARTSGIRSIAQSRVVPVKIGEAPKSGRPYLVTNGQLQDFRAVVLDLDWAPGKPVALSVEAAEALGVGEGASVRLVAVGS | soluble
MARLTVHTLETAPEAAKARVEAVLQNNGFIPNLIGVLSNAPEALAFYQEVGKLNAANSLTAGEVEVIQIIAARTNQCGFCVAGHTKLATLKKLLSEQSVKAARALAAGEFDDAKLGALAAFTQAVMAKKGAVSDEELKAFFDAGYNQQQAVEVVMGVALATLCNYVNNLGQTEINP | not soluble
MGSDKIHHHHHHMRENSDVLANSGFRQSVEVQIKDKQSYKRLNMTLVGQQHPDYLILELSRQYCWQDILPMLATEKNVAIKTVSPKGEQVTGVVDILHITQYPQKLLFVSYPRNASVEILRSSPRVGVNCDARLQLQLKDKLGEPLTGKIVDISNKGIAFNYFGTSPVNIEDSRGLEAEVRVKTDDETILLQQLITRSIRSVGPQLWQLGLSYKEKPNNLQDLVSKLFLHSTPVRELLSDNDPGWDASDNTLQGESESVQFSTN | not soluble
MGSDKIHHHHHHMSNFLLEAGRQTLMLELQEASRLPERLGDDFIRAAETIIHCEGKLIVSGIGKSGHIGKKLAATFASTGTPAFFVHPAEALHGDLGMLDSRDVMLFISYSGSAKELDLIVPRLEEKGIPLLAMTGKSTSPLALAAKAVLDIAVEREACPMHLAPTSSTVNTLMLGDALAMAVMQARGFNEEDFARSHPAGALGARLLNKVHHLMRRDEEVPRVNTEANVMDAMLELSRTGLGLVAVCDEANRVQGVFTDGDLRRWLVAGGTLNDGVTRAMTRNGVTLQADSRAVEAKERLMKHKISAAPVVDENGQLVGAINLQNFYQAGIL | not soluble
VPKLIDHDRRQQEIAEAVWRVIQREGIGAVSVRDVAAEAGISSGSLRHVFASKTELLAYSMRLVATRVRERAQAHASITDPWQRALAVLDEVLPLDDRRRCEMEVNLALVAESPAHPLLKDIALDAQRQLRGACAAILTGLAQWGLIAPDIDVDAEAMRLHALVDGAAMHVLLGDTDTPDTARRMIAEHLRTLL | not soluble
MRKVETTKAPQAIGPYSQGIIVNNMFYSSGQIPLTPEGELVKGDIQAQTHQVFQNLKAVLEAAGASLDTVVKTTVFLKNMDDFAAMNEVYSQYFPNHKPARSCVEVARLPKDVLVEIEVVALVP | soluble
GPGSMSDWETIAKESEKVLVKPDIKGCHEILMKAYEGGNHHPEILWRLGRSYYEMANESTDPAVREPYLKEGMELCKKSVEADPHNFASHKWLGILISDQKVGNKEKIANAYIIRDHFLKAVELNPNDATSLHCMGNWCFKILQIGWLERKAAALILGEPPSSTYEECLGYLLRSAEAGNTIHNSTMIGDVYAQQSMHDEARKWYQKAIDMPAYTELQKRNHDAAVAKIKKL | soluble
